The supplement of paper PMC10724198
± gives the standard deviation of the averaged measurements.

Each sequence was assayed on Saccharomyces cerevisiae (assay: protein stability index of tFT-peptide fusion (C-terminal peptide) (PSI (0-1 scale)); higher = more stable (slower turnover)). Details: genetic background: wild type; temperature: 30 C.
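Note: PSI is a weighted mean of sequencing reads over stability bins, variants kept only with over 10 reads, mCherry proximal and sfGFP distal, peptide attached via GGGS linker.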

In order of falling protein stability index:
1. LRRTMRLASASF  0.831 ± 0.014
2. LRKDVRTRSNTK  0.806 ± 0.051
3. LSGLVPSLGCRR  0.786 ± 0.06
4. LSSCLFDPIFLF  0.783 ± 0.018
5. LPQSSRKEAHHH  0.78 ± 0.062
6. LRKAKRDKRIKI  0.759 ± 0.075
7. LSSTIFHRSCVR  0.759 ± 0.02
8. LPRPPLLTPSCL  0.746 ± 0.06
9. LSDGATDIGCLL  0.741 ± 0.037
10. LSFFGPPFPISF  0.74 ± 0.043
11. LRVGMWNNVINR  0.734 ± 0.12
12. LSYPPPPTQPPA  0.734 ± 0.0083
13. LSFPFLFSVPFL  0.733 ± 0.021
14. LPPPSLPPLPLF  0.728 ± 0.065
15. LPPTLPPPPPAL  0.724 ± 0.032
16. LRPCAGAVRPSA  0.724 ± 0.0099
17. LRSHKIVDQDPF  0.7235 ± 0.005
18. LQEQIHKPPKPQ  0.72 ± 0.00088
19. LPRLSPSPRPSR  0.719 ± 0.008
20. LRPLVRLLHSYP  0.718 ± 0.031
21. LTPGFSRIDRAP  0.718 ± 0.062
22. LSLPTLPLPPPS  0.7173 ± 0.006
23. LPPTAPAPPSPP  0.716 ± 0.086
24. LRIYIKTGAKGV  0.71448 ± 0.00053
25. LRSPFPTPSDLV  0.714 ± 0.051
26. LTAFFPFSTFFP  0.714 ± 0.042
27. LPRELFSQQRFL  0.713 ± 0.0097
28. LSEFFLSAFLSC  0.712 ± 0.011
29. LPPRPTPPPPPP  0.71 ± 0.056
30. LSPPPPLALTPS  0.709 ± 0.021
31. LRPPPPSAGAPP  0.708 ± 0.088
32. LPPSNYPCPSGK  0.706 ± 0.02
33. LSYGQKARIKRE  0.703 ± 0.075
34. LPSLFSPPLFPL  0.702 ± 0.0017
35. LSRFPSPPPLSH  0.701 ± 0.024
36. LRWFLTGWPRGE  0.699 ± 0.16
37. LRYARAPFPAPP  0.699 ± 0.024
38. LSPLPPDLPDLP  0.699 ± 0.12
39. LSSSTHNLDFLQ  0.698 ± 0.041
40. LRLDFPPARPHS  0.697 ± 0.044
41. LSVMACGMGESI  0.696 ± 0.017
42. LSGYLVCSLSLR  0.695 ± 0.045
43. LSLSPPPASPIP  0.692 ± 0.011
44. LPRSAPLHFPAC  0.688 ± 0.02
45. LRKGGGVGVWRG  0.687 ± 0.012
46. LSLDMVAPTGLA  0.686 ± 0.014
47. LPSPPASSPRRS  0.684 ± 0.025
48. LRLPSHHPLCYF  0.684 ± 0.011
49. LSVVLARLCQGS  0.6842 ± 0.0052
50. LSGCASGYRPPW  0.683 ± 0.047
51. LSLSILFTPSPN  0.682 ± 0.051
52. LSTTQSKTLNPR  0.682 ± 0.052
53. LSRVLQAPRRGG  0.681 ± 0.0075
54. LPQAVPCRTPPL  0.679 ± 0.054
55. LSRFLPESVYMS  0.679 ± 0.011
56. LSGLLGGGAGTL  0.678 ± 0.013
57. LPPPSPGLPLSP  0.6773 ± 0.0059
58. LSGGAVVEVHFL  0.674 ± 0.011
59. LTFILGPPRMWL  0.669 ± 0.018
60. LRLLCRTRCYRS  0.666 ± 0.019
61. LRSPSDSLALPL  0.666 ± 0.028
62. LSDMNHVLKVFL  0.665 ± 0.054
63. LPPSTSPPIRPP  0.663 ± 0.043
64. LPVDPDTIIVVK  0.663 ± 0.019
65. LRAPFGWVKRFL  0.663 ± 0.069
66. LRRPVDPSHIPI  0.663 ± 0.07
67. LPPSQLPPPHLT  0.662 ± 0.019
68. LRGPRRAVEGTP  0.66 ± 0.031
69. LSTCSFSFFLHT  0.66 ± 0.019
70. LPPRAPPTCFPL  0.658 ± 0.12
71. LTGESGDRSVGP  0.657 ± 0.019
72. LSTSLPLSPPPP  0.652 ± 0.013
73. LPQLPNSRRLPL  0.648 ± 0.049
74. LSARSSFIFSYY  0.645 ± 0.017
75. LSSQCIVQLFRA  0.64 ± 0.025
76. LSIIRSPDWVDC  0.639 ± 0.059
77. LRIAKSGVGGFA  0.636 ± 0.029
78. LSPFPLFAPFNF  0.635 ± 0.039
79. LSVFWRGSLWTL  0.635 ± 0.023
80. LRRRGHCLRGEL  0.6313 ± 0.0023
81. LPSCKVSLASLL  0.6281 ± 0.0035
82. LRPGVRHFRECV  0.627 ± 0.096
83. LPPRPPPPPPPA  0.62606 ± 2.4e-05
84. LSDKTALDRPVH  0.625 ± 0.057
85. LRLPPPLCPLRS  0.623 ± 0.054
86. LRSCLSIYDCSS  0.618 ± 0.16
87. LSPHSSLTPPPH  0.616 ± 0.037
88. LRLPKGVSLVDI  0.6093 ± 0.0053
89. LSPTPSAPPCFG  0.601 ± 0.043
90. LPPSPPDPTPPP  0.594 ± 0.0095
91. LSGPPVSVQRSF  0.594 ± 0.03
92. LRLCPAPYIPVL  0.591 ± 0.012
93. LRFGGWFLIGLR  0.583 ± 0.021
94. LTFSVQCVYFDS  0.571
95. LSARIGEMVDTW  0.56 ± 0.027
96. LSRLRVLLTPIS  0.56 ± 0.075
97. LSPLPPSPPPST  0.543 ± 0.025
98. LRVVISWGLDLY  0.529 ± 0.02
99. LRISIEVTNYGP  0.517 ± 0.021
100. LTEFVVFFFFVF  0.5166 ± 0.0049
101. LPVFVIGEFLLV  0.49 ± 0.037
